Reference: patent US20150148403A1 (ACADEMIA SINICA, published 2015)
Where a chain is given by its changes, count along the chain named. In names and notes the source's numbering stands.

T1: Flag-tagged USP37 (human, UniProt Q86T82 1-979)
T1 construct: Expressed in transfected HEK-293T cells and tested in lysate by co-immunoprecipitation; also called Flag-USP37; USP37 WT; not shown: 3xFLAG tag from the pCMV-3xFLAG vector
T1 sequence: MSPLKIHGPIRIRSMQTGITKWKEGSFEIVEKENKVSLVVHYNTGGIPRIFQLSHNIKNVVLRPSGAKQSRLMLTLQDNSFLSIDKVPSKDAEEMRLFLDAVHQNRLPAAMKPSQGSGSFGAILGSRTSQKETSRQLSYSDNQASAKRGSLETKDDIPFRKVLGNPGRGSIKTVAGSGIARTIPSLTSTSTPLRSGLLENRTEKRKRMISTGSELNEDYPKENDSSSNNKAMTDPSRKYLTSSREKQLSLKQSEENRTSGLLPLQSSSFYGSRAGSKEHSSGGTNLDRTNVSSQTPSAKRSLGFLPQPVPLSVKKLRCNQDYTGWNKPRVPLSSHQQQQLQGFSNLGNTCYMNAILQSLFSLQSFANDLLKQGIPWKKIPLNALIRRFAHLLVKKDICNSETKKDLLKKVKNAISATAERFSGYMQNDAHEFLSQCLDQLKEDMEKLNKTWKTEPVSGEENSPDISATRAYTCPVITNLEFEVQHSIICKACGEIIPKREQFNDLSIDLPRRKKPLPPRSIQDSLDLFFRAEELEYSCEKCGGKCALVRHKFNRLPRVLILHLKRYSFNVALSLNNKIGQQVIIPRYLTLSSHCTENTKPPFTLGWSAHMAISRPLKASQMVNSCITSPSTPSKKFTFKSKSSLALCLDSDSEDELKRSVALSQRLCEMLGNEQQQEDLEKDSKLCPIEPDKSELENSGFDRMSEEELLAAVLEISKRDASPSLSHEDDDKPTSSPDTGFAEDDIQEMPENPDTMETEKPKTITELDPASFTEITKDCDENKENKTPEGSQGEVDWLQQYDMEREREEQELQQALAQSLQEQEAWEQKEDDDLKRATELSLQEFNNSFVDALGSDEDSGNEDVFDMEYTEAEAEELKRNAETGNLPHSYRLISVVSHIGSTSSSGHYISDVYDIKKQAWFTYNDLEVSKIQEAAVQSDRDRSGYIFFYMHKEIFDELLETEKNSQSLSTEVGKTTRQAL

B1: HA-tagged RARA (receptor, UniProt P10276 1-462, looked up)
chain: MASNSSSCPTPGGGHLNGYPVPPYAFFFPPMLGGLSPPGALTTLQHQLPVSGYSTPSPATIETQSSSSEEIVPSPPSPPPLPRIYKPCFVCQDKSSGYHYGVSACEGCKGFFRRSIQKNMVYTCHRDKNCIINKVTRNRCQYCRLQKCFEVGMSKESVRNDRNKKKKEVPKPECSESYTLTPEVGELIEKVRKAHQETFPALCQLGKYTTNNSSEQRVSLDIDLWDKFSELSTKCIIKTVEFAKQLPGFTTLTIADQITLLKAACLDILILRICTRYTPEQDTMTFSDGLTLNRTQMHNAGFGPLTDLVFAFANQLLPLEMDDAETGLLSAICLICGDRQDLEQPDRVDMLQEPLLEALKVYVRKRRPSRPHMFPKMLMKITDLRSISAKGAERVITLKMEIPGSMPPLIQEMLENSEGLDTLSGQPGGGGRDGGGLAPPPGSCSPSLSPSSNRSSPATHSP
notes: Expressed in transfected HEK-293T cells; not shown: HA tag
B2: MBP-fused USP37 recombinant protein (protein)
chain: T1 sequence
B3: recombinant USP37 CA mutant (USP37 C350A) (protein)
chain: T1 sequence with C350A

Tests used:
Flag-tagged USP37 = biological target: T1, Flag-tagged USP37; assay: co-immunoprecipitation from transfected HEK-293T cells
[1] = biological target: poly-ubiquitinated PLZF/RARA immunoprecipitated from HEK-293T cells expressing Flag-tagged PLZF/RARA and Myc-tagged Ub

Binder	binding result (Flag-tagged USP37)	in vitro deubiquitination of poly-ubiquitinated PLZF/RARA (immunoblot) [1]
B1	no binding	
B2		the recombinant USP37 WT but not CA mutant could deubiquitinate PLZF/RARA in vitro
B3		the recombinant USP37 WT but not CA mutant could deubiquitinate PLZF/RARA in vitro
